Assay results taken from the supplement of paper PMC9170038.

Test system: K4 kissing-loop RNA reporter
Experiment: apparent KD of K4 kissing-loop reporter; higher = weaker reporter binding
Settings: Eterna round: R107
Experimental: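 RNA-MaP round R107: designed RNA switches with theophylline, tryptophan, arginine or FMN aptamers are transcribed on-chip within common flanks. They are titrated with a labelled K4 kissing-loop RNA reporter in RNA-MaP buffer (100 mM Tris pH 7.5, 80 mM KCl, 4 mM MgCl2), without ligand or with the indicated ligand. Median apparent KD per design.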

[1] = input ligand: theophylline 20 uM
[2] = input ligand: tryptophan 2.4 mM
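Further: bound reporter read as fluorescence of individual clusters on recovered sequencing chips by microscopy, with normalized cluster intensities fitted with a binding model.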

Sequence	apparent KD of K4 kissing-loop reporter (input ligand: FMN 200 uM) [nM]	apparent KD of K4 kissing-loop reporter (input ligand: arginine 13.2 mM) [nM]	apparent KD of K4 kissing-loop reporter (input ligand: none) [nM]	apparent KD of K4 kissing-loop reporter [1] [nM]	apparent KD of K4 kissing-loop reporter [2] [nM]
UGAUUGCCAGUGAUGUUGGCAGGGUCUGAAGGAGCGCGUGAAAACGCAGGUAGGUCGCAGUAUGGUGCCAAUUGAUCGAAAGAUC [KL-XArg-A3]	226	186	223	210	170
UGCAUCAGUGCCUUUGAUCUAUUCCUGGAUACCAGAUCCUACUUGAUCCCUUGGCAGCCAUACGGGAGUGAUGUUCCAUGUAUCC [theeternabot_exclusion_KL_Theo_A_43]	210	199	209	285	167
UGCGCUGUGUACUGAAAUGUCCUGCGGGAUACCAGAGUCUUUUUAUUCCCUUGGCAGCUUGAGUGAUGUUUGAUGCCGUUCUUGU [frrgmullin]	786	423	710	738	470
UGGACCUGACUCGAUAAGAGUCAAUGAGAUACCAGUGACGAAAGUCACCCUUGGCAGCUCAACUGCCAGUGAUGUUGGUGGUCCU [#SwitchBubble 2 #StaticStem]	605	389	769	703	528
UGGAGUUGACGAAAAGUCAACUCCCGAGAAGGAGCGGACGAAAGUCCAGGUAGGUCGCUCACUACCAGUGAUGUUGGUACUUAAA	138	220	181	213	138
UGGAGUUGACGAAAAGUCAACUCCUGAGAAGGAGCGGACGAAAGUCCAGGUAGGUCGCUCACUACCAGUGAUGUUGGUACUGAAA	187	228	203	229	164
UGGAUGUAGUGAUGUUAUAUAGAGAGUGAUACCAGUUUAGAGAAGAACCCUUGGCAGCAUAGAAGAGUAUCAUUGGAGAAGAAUG [ExTheophyl.Ar]	308	347	320	334	244
UGGCAAGUGAUGUUUGCGUUUCCGCAGGAUACCAGUCUGUCUUGAGACCCUUGGCAGCCUGGGUACAGUCCAAGCGGUCACACGA [theeternabot_exclusion_KL_Theo_A_38]	371	297	405	375	285
UGGCGGCAAGGGUUAUUGGAAAGUAUUCGUCGAGGACCGGUACGGCCGCCACUCGAACACCAGUGAUGUUGGUCUGGUUUAAGCU [Exclusion Tryptophan A GF 22]	447	690	540	636	321
UGUAAGCGCGUAGAUACCAGCAGACGAGUGAUGUUCGAGAGAUUAAGGAAAAGAAAGUGAUGCCCUUGGCAGCUAAUCAUAAGCG [whbob_Ex_Theo_B_sa95]	278	300	288	323	182
UGUAAGUGUCAGCGAGUGAUGUUCGACGAUACCAGACUCGAUAGAGUCCCUUGGCAGCGUAAUGCAUGCCAAACUGGCACAUACU [#SwitchBubble 11 #K4Early]	453	438	560	528	434
UGUACCGAGUCAGGAUAUCAACGACUGACAAAGUCGGUCGAAUAUCCAGUGAUGUUGGAAAAUAAAUGAGAAGGGACUUGGUACU [FmnBS 12 #SwitchBubble #StaticStem]	137	361	360	341	344
UGUACCGAGUCAGGAUAUGCCGUCGAAAGACGAAAGCAGUGAUGUUGCAUCGAUCGAAAGAUCGUUGCAGAAGGGACUUGGUACU [FmnBS 23 #SwitchBubble #StaticStem #DoubleMagnetSystem]	873	164	244	158	297
UGUACCGAGUCAGGAUAUGGCGUCGAAAGACGAAACCAGUGAUGUUGGAAUCGAUCGAAAGAUCGUCCAGAAGGGACUUGGUACU [FmnBS 21 #SwitchBubble #StaticStem #DoubleMagnetSystem]	204	382	377	349	359
UGUACUCUGAAAGGAUAUGUGAGCCCUUUUUGUUAGUGAUGUUGACACGGAAACACCAUCAGACUUACAGAAGGUUCGUUGGGUA [theeternabot_sameState_KL_FMN_B_17]	375	183	241	286	252
UGUAUGUGAUUUGAUACCAGACCAGCUGGUGGUAUCUGAGUGAUGUUCAGGUAGGUUUGGGUCCCUUGGCAGCAAAUCGCAUACU [KL-SSTheoB26]	168	118	153	150	147
UGUCAUUGGUCGGCCGCCACUUCAUAAAGAGUGAUGUUCUAAAAGACGGAUCGAAAGAUCUGUCGAAGGACCGGGAUCGAUGACU [FiskerMod 11 - Jieux - Same State - Tryptophan B]	1200	559	998	569	275
UGUCAUUGGUCGGCCGCCACUUCGUGUGGAGUGAUGUUUUGUAGAUUGUGUUGAAAGGUAUGGUGAAGGACCGGGACCGAUGACU [FiskerMod 21 - Jieux - Same State - Tryptophan B]	1100	368	1090	242	997
UGUCAUUGGUCUGAUACCAGAAGAAAUCUGGAGUGAUGUUCCAAGUACGACAAAAGUCGCUUCCCUUGGCAGCAGACCGAUGACU [TheoBS 21 #SwitchBubble 13 #StaticStem]	705	510	638	406	683
UGUGAUGUGUAGAGUGAUGUUUUGAAGGAUACCAGAGUGUUGUUAUUCCCUUGGCAGCUUGAGUGAUGUUUGAUGUUGUUGUUGU [efvrmullin]	228	120	194	133	152
UGUGUUGUGUAGUGUUAUGUUUUGAGGGAUACCAGAGUGUUUUUAUUCCCUUGGCAGCUUGAGUGAUGUUUGAUGUUGUUGUUGU [jlljmullin]	297	178	218	219	184
